Measurements: patent US20230346949A1, “A METHOD OF FORMING A CONJUGATE OF A SULFONAMIDE AND A POLYPEPTIDE” (SANOFI, priority 2019, published 2023)

Key:
[1] = Storage stability of the activated sulfonamide; format: physicochemical; conditions: acetonitrile solution under argon, 2 to 8° C.
Procedure: 32.5 g 2-[2-[2-[[2-[2-[2-[[2-[[4-(16-tert-butoxy-16-oxo-hexadecoxy)phenyl]sulfonylamino]-pyrimidine-5-carbonyl]amino]ethoxy]ethoxy]acetyl]amino]ethoxy]ethoxy]acetic acid (sticky syrup) was dissolved in 305 ml dry acetonitrile. 305 ml dry ethyl acetate under an argon layer, 16.25 g (63.4 mmol) N,N-disuccinimidylcarbonat and 3.25 g (26.6 mmol) dimethylaminopyridine was added under stirring at room temperature (25° C.). After 90 minutes, the solvent was distilled off using a rotary evaporator and the remaining oily product was dissolved in 1.5 liters of ethyl acetate. The ethyl acetate solution was extracted three times, each time with 300 ml 0.1 N HCl and 300 ml saturated NaCl solution. The solvent was distilled off using a rotary evaporator, leaving again an oily product. The oily product was dissolved in 0.5 liters of ethyl acetate, the precipitated NaCl was filtered off and the ethyl acetate was distilled off. Next, 0.5 liters of ethyl acetate was added and the solvent was distilled off using a rotary evaporator. […] Yield in the acetonitrile solution was calculated from HPLC data as 78% based on the amount of 2-[2-[2-[[2-[2-[2-[[2[[4-(16-tert-butoxy-16-oxo-hexadecoxy)phenyl]sulfonylamino]-pyrimidine-5-carbonyl]amino]ethoxy]ethoxy]acetyl]amino]ethoxy]ethoxy]acetic acid used. […]

[2] = target: human insulin receptor isoform B (human) (UniProt P06213); experiment: cell-based or functional assay
[3] = target: human insulin receptor isoform B (human) (UniProt P06213); experiment: SPA competition with 100 pM [125I]-human insulin, membranes of CHO cells overexpressing IR

stability in solution [1]	Autophosphorylation activity (relative to human insulin) [2]	Insulin-receptor binding affinity (relative to human insulin) (relative to human insulin) [3]	Compound
less than 3 days	–	–	O=C(O)CCCCCCCCCCCCCCCOc1ccc(S(=O)(=O)Nc2ncc(C(=O)NCCOCCOCC(=O)NCCOCCOCC(=O)ON3C(=O)CCC3=O)cn2)cc1 [16-[4-[[5-[2-[2-[2-[2-[2-[2-(2,5-dioxopyrrolidin-1-yl)oxy-2-oxo-ethoxy]ethoxy]ethylamino]-2-oxo-ethoxy]ethoxy]ethylcarbamoyl]pyrimidin-2-yl]sulfamoyl]phenoxy]hexadecanoate]
–	0.2	–	Ala(B25)-Insulin (ligand)
–	0.17	–	Ala(B25)Des(B30)-Insulin (ligand)
–	0.87	–	Glu(A14)Des(B30)-Insulin (ligand)
–	0.01	–	Glu(A14)Glu(B3)Ile(B16)Ile(B25)Des(B30)-Insulin (ligand)
–	0.28	0.4	Glu(A14)Glu(B3)Val(B16)Des(B30)-Insulin (ligand)
–	0.02	–	Glu(A14)Glu(B3)Val(B16)Val(B25)Des(B30)-Insulin (ligand)
–	0.07	0.01	Glu(A14)Glu(B16)His(B25)Des(B30)-Insulin (ligand)
–	0.13	0.12	Glu(A14)Gly(A21)Glu(B3)Ile(B16)Trp(B25)Des(B30)-Insulin (ligand)
–	0.02	0.01	Glu(A14)Gly(A21)Glu(B3)Ile(B16)Val(B25)Des(B30)-Insulin (ligand)
–	0.19	0.21	Glu(A14)Gly(A21)Glu(B3)Val(B16)Trp(B25)Des(B30)-Insulin (ligand)
–	0.01	0.01	Glu(A14)Gly(A21)Glu(B3)Val(B16)Val(B25)Des(B30)-Insulin (ligand)
–	0.03	0.02	Glu(A14)Gly(A21)Glu(B3)Val(B25)Des(B30)-Insulin (ligand)
–	0.38	0.63	Glu(A14)Gly(A21)Trp(B16)Des(B30)-Insulin (ligand)
–	0.37	–	Glu(A14)Gly(A21)Trp(B25)Des(B30)-Insulin (ligand)
–	0.23	0.17	Glu(A14)Gly(A21)Val(B16)Trp(B25)Des(B30)-Insulin (ligand)
–	0.29	0.36	Glu(A14)His(B16)Des(B30)-Insulin (ligand)
–	0.11	0.12	Glu(A14)His(B16)His(B25)Des(B30)-Insulin (ligand)

stability in solution [1]	Autophosphorylation activity (relative to human insulin) [2]	Insulin-receptor binding affinity (relative to human insulin) (relative to human insulin) [3]	Compound
–	0.18	0.23	Glu(A14)Ile(B16)Des(B30)-Insulin (ligand)
–	0.04	–	Glu(A14)Ile(B16)Val(B25)Des(B30)-Insulin (ligand)
–	0.04	–	Glu(A14)Ile(B25)Des(B30)-Insulin (ligand)
–	0.04	0.01	Glu(A14)Leu(B16)Ala(B25)Des(B30)-Insulin (ligand)
–	0.32	–	Glu(A14)Val(B16)Des(B30)-Insulin (ligand)
–	0.01	–	Glu(A14)Val(B16)Ile(B25)Des(B30)-Insulin (ligand)
–	0.03	–	Glu(A14)Val(B16)Val(B25)Des(B30)-Insulin (ligand)
–	0.04	–	Glu(A14)Val(B25)Des(B30)-Insulin (ligand)
–	0.4	0.57	Gly(A21)Trp(B16)Des(B30)-Insulin (ligand)
–	0.35	0.4	Gly(A21)Trp(B16)His(B25)Des(B30)-Insulin (ligand)
–	0.38	0.43	Gly(A21)Trp(B16)Trp(B25)Des(B30)-Insulin (ligand)
–	0.1	–	His(B16)His(B25)Des(B30)-Insulin (ligand)
–	0.31	–	His(B25)Des(B30)-Insulin (ligand)
–	0.34	–	Leu(B16)Des(B30)-Insulin (ligand)
–	0.06	–	Leu(B25)Des(B30)-Insulin (ligand)
–	0.32	–	Val(B16)Des(B30)-Insulin (ligand)
–	0.06	–	Val(B25)Des(B30)-Insulin (ligand)
